Measurements from patent publication US20210024639A1 (AGOMAB THERAPEUTICS, published 2021).

B1: chimeric llama-human IgG1 mAb 71G2 (antibody, V domains shown)
VH: EVQLQESGGGLVQPGGSLRLSCAASGFTFSIYDMSWVRQAPGKGLEWVSTINSDGSSTSYVDSVKGRFTISRDNAKNTLYLQMNSLKPEDTAVYYCAKVYGSTWDVGPMGYGMDYWGKGTLVTVSS
VL: SSALTQPSALSVSLGQTARITCQGGSLGSSYAHWYQQKPGQAPVLVIYGDDSRPSGIPERFSGSSSGGTATLTISGAQAEDEDDYYCQSTDSSGNTVFGGGTRLTVL
B2: chimeric llama-human IgG1 mAb 76H10 (antibody, V domains shown)
VH: QLQLVESGGGLVQPGGSLRVSCTASGFTFNTYYMTWVRQAPGKGLEWVSDINSGGGTYYADSVKGRFTISRDNAKNTLYLQMNSLKPEDTALYYCVRVRIWPVGYDYWGQGTQVTVSS
VL: QAVVTQEPSLSVSPGGTVTLTCGLSSGSVTTSNYPGWFQQTPGQAPRTLIYNTNNRHSGVPSRFSGSISGNKAALTITGAQPEDEADYYCSLYTGSYTTVFGGGTHLTVL
B3: chimeric llama-human IgG1 mAb 71G3 (antibody, V domains shown)
VH: QVQLVESGGGLVQPGGSLRVSCAASGFTFSTYYMSWVRQAPGKGLEWVSDIRTDGGTYYADSVKGRFTMSRDNAKNTLYLQMNSLKPEDTALYYCARTRIFPSGYDYWGQGTQVTVSS
VL: QAVVTQEPSLSVSPGGTVTLTCGLSSGSVTTSNYPGWFQQTPGQAPRTLIYNTNSRHSGVPSRFSGSISGNKAALTIMGAQPEDEADYYCSLYPGSTTVFGGGTHLTVL

Key:
[1] = target: T1, native human MET on living human cells (human, UniProt P08581 25-1390); test: cell-based or functional assay
[2] = target: T2, native mouse MET on living mouse cells (mouse, UniProt P16056 25-1379); test: cell-based or functional assay
[3] = target: T1, native human MET on living human cells; test: cell-based or functional assay; remark: listed apart in the source
[4] = target: T2, native mouse MET on living mouse cells; test: cell-based or functional assay; remark: listed apart in the source
[5] = target: T1, native human MET on living human cells; test: flow cytometry, A549 cells
Summary of the method: (§1)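 Chimeric anti-MET antibodies were incubated with living cells, and bound antibody was detected by flow cytometry with phycoerythrin-conjugated anti-human IgG1. Positive controls were a mouse anti-human MET antibody (PE anti-mouse IgG1) and a goat anti-mouse MET antibody (PE anti-goat IgG1); maximal binding (EMAX) was derived.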

[6] = target: T2, native mouse MET on living mouse cells; test: flow cytometry, MLP29 cells
Summary of the method: as §1

[7] = target: human MET ECD mutant A (mutations 1, 2, 3) (human) (UniProt P08581); test: ELISA, MET ECD mutant in solid phase, mAb 0-50 nM
[8] = target: human MET ECD mutant D (mutations 1, 2) (human) (UniProt P08581); test: ELISA, MET ECD mutant in solid phase, mAb 0-50 nM
[9] = target: human MET ECD mutant E (mutations 2, 3, 4) (human) (UniProt P08581); test: ELISA, MET ECD mutant in solid phase, mAb 0-50 nM
[10] = target: human MET ECD mutant H (mutations 2, 4) (human) (UniProt P08581); test: ELISA, MET ECD mutant in solid phase, mAb 0-50 nM
[11] = target: T3, human MET extracellular domain (ECD) (human, UniProt P08581 25-932); test: ELISA, MET ECD in solid phase, mAb 0-50 nM
T3 construct: range 1-932; recombinant ECD; also called hMET; human MET ECD
Experimental: Using human MET as a template, we mutagenized each of these residues in different permutations, generating a series of MET mutants that are fully human except for specific residues, which are llama. Next, we tested the affinity of selected SEMA-binding mAbs (71D6, 71C3, 71D4, 71A3, 71G2) and PSI-binding mAbs (76H10 and 71G3) for these MET mutants by ELISA. To this end, the various MET proteins were immobilized in solid phase (100 ng/well in a 96-well plate) and then exposed to increasing concentrations of antibodies (0-50 nM) solution. […] Wild-type human MET was used as positive control.
TABLE 18 The epitopes of MET responsible for agonistic antibody binding represent residues conserved among H. sapiens, M. musculus, R. norvegicus, M. fascicularis but not among the same species and L. glama. The relevance of residues conserved among human, mouse, rat, cynomolgus monkey but not llama MET for binding to agonistic mAbs was tested by ELISA. Wild-type (WT) or mutant (MT) human MET ECD was immobilized in solid phase and exposed to increasing concentrations of mAbs in solution. […] All binding values were normalized to the WT protein and are expressed as % binding (EMAX) compared to WT MET.

[12] = target: T4, human MET-Fc chimeric protein (R&D Systems) (human, UniProt P08581 25-932); test: competition ELISA, hMET-Fc in solid phase, competitor 0.3 nM biotinylated hHGF
T4 construct: extracellular domain; bought (R&D Systems); also called hMET; not shown: Fc portion of human IgG1
Summary of the method: (§2)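 Immobilized human or mouse MET-Fc was exposed to 0.3 nM N-terminally biotinylated HGF of matching species with antibodies at 0–120 nM. Competition given as IC₅₀ (antibody concentration for 50% competition) and IMAX (maximum % competition at saturation).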

[13] = target: T5, mouse MET-Fc chimeric protein (R&D Systems) (mouse, UniProt P16056 25-929, limits assumed); test: competition ELISA, mMET-Fc in solid phase, competitor 0.3 nM biotinylated mHGF
T5 construct: bought (R&D Systems); also called mMET; not shown: Fc
Summary of the method: as §2

[14] = target: human MET ECD mutant I (mutations 6, 7, 8) (human) (UniProt P08581); test: ELISA, MET ECD mutant in solid phase, mAb 0-50 nM
[15] = target: human MET ECD mutant J (mutations 6, 7) (human) (UniProt P08581); test: ELISA, MET ECD mutant in solid phase, mAb 0-50 nM

Binder | cell scattering score, HPAF-II, 0.001 nM [1] [score 0-4] | cell scattering score, HPAF-II, 0.004 nM [1] [score 0-4] | cell scattering score, HPAF-II, 0.012 nM [1] [score 0-4] | cell scattering score, HPAF-II, 0.037 nM [1] [score 0-4] | cell scattering score, HPAF-II, 0.111 nM [1] [score 0-4] | cell scattering score, HPAF-II, 0.333 nM [1] [score 0-4] | cell scattering score, HPAF-II, 1.000 nM [1] [score 0-4] | cell scattering score, HPAF-II, 3.000 nM [1] [score 0-4] | cell scattering score, HPAF-II, 9.000 nM [1] [score 0-4] | cell scattering score, MLP29, 0.001 nM [2] [score 0-4] | cell scattering score, MLP29, 0.004 nM [2] [score 0-4] | cell scattering score, MLP29, 0.012 nM [2] [score 0-4] | cell scattering score, MLP29, 0.037 nM [2] [score 0-4] | cell scattering score, MLP29, 0.111 nM [2] [score 0-4] | cell scattering score, MLP29, 0.333 nM [2] [score 0-4] | cell scattering score, MLP29, 1.000 nM [2] [score 0-4] | cell scattering score, MLP29, 3.000 nM [2] [score 0-4] | cell scattering score, MLP29, 9.000 nM [2] [score 0-4] | protection from staurosporine, viability EC50, MCF10A [3] [nM] | protection from staurosporine, viability EMAX, MCF10A [3] [%] | also measured
B1 | 0 | 1 | 2 | 3 | 4 | 4 | 4 | 4 | 4 | 0 | 0 | 1 | 2 | 4 | 4 | 4 | 4 | 4 | 1.06 | 64.8 | protection from staurosporine, viability EC50, MLP29 [4]: 1.99 nM; protection from staurosporine, viability EMAX, MLP29 [4]: 58.3%; EMAX (% relative to control) [5]: 144%; EMAX (% relative to control) [6]: 130%; % binding (EMAX) compared to WT MET [7]: 92.1%; % binding (EMAX) compared to WT MET [8]: 114%; % binding (EMAX) compared to WT MET [9]: 41.4%; % binding (EMAX) compared to WT MET [10]: 40.2%; % binding (EMAX) compared to WT MET [11]: 100%; IMAX (maximum % competition) [12]: 97.8%; IMAX (maximum % competition) [13]: 91.9%
B2 | 0 | 0 | 0 | 0 | 0 | 0 | 1 | 2 | 3 | 0 | 0 | 0 | 0 | 0 | 0 | 1 | 2 | 3 | > 32 | 22.8 | protection from staurosporine, viability EC50, MLP29 [4]: > 32 nM; protection from staurosporine, viability EMAX, MLP29 [4]: 27.2%; EMAX (% relative to control) [5]: 130%; EMAX (% relative to control) [6]: 124%; % binding (EMAX) compared to WT MET [14]: 100%; % binding (EMAX) compared to WT MET [15]: 89%; IMAX (maximum % competition) [12]: 64.2%; IMAX (maximum % competition) [13]: 62.7%
B3 | 0 | 0 | 1 | 2 | 3 | 4 | 4 | 4 | 4 | 0 | 0 | 0 | 1 | 2 | 4 | 4 | 4 | 4 | 5.04 | 65.2 | protection from staurosporine, viability EC50, MLP29 [4]: 4.85 nM; protection from staurosporine, viability EMAX, MLP29 [4]: 62.3%; EMAX (% relative to control) [5]: 117%; EMAX (% relative to control) [6]: 116%; % binding (EMAX) compared to WT MET [14]: 100%; % binding (EMAX) compared to WT MET [15]: 91.2%; IMAX (maximum % competition) [12]: 63.2%; IMAX (maximum % competition) [13]: 62.9%
